Measurements published in the DeepSol protein solubility set.

Experiment: soluble on expression in E. coli; label from the status in PepcDB or PDB records

Question: Which “soluble on expression in E. coli” value does the source give for “MNTDVRIEKDFLGEKEIPKDAYYGVQTIRATENFPITGYRIHPELIKSLGIVKKSAALANMEVGLLDKEVGQYIVKAADEVIEGKWNDQFIVDPIQGGAGTSINMNANEVIANRALELMGEEKGNYSKISPNSHVNMSQSTNDAFPTATHIAVLSLLNQLIETTKYMQQEFMKKADEFAGVIKMGRTHLQDAVPILLGQEFEAYARVIARDIERIANTRNNLYDINMGATAVGTGLNADPEYISIVTEHLAKFSGHPLRSAQHLVDATQNTDCYTEVSSALKVCMINMSKIANDLRLMASGPRAGLSEIVLPARQPGSSIMPGKVNPVMPEVMNQVAFQVFGNDLTITSASEAGQFELNVMEPVLFFNLIQSISIMTNVFKSFTENCLKGIKANEERMKEYVEKSIGIITAINPHVGYETAAKLAREAYLTGESIRELCIKYGVLTEEQLNEILNPYEMIHPGIAGRK” here?
Answer: soluble

Question: For “MGSDKIHHHHHHMQQAHNDGVVSAMSQATDARLAAQDLARQLLHPHLGFVLFFCSAEYDLQALGEALEQDFGGIRLVGCTSAGEITPLGYGRNCVTAVGFDHRHFSIATALIDEMERFSLIDAQQMVERLVGTCRSNTLAPIKGHSFALTLLDGLSSREEMVLAALSAALGDIPHFGGSAGDDNYLNRTHVYYGGAFHNGAAVVVLVNTWLDFEVFTTHHILPRQEKLVVTGADSAQRRVFELNAEPAAEEYARHIGVPVAALDHRVFAAHPLAVRIHDQYYVRAIQQMHPDLSLSFYCAVENGIVLTAMTPGPLLPNLHQLFDGLHQRLGPLLLTIGCDCFLRRLELEAHRGLEPVGAFLREQRVIGFNTYGEQFNGMHINQTFTGVAIARNRPPVGR”, which “soluble on expression in E. coli” value is on record?
Answer: not soluble

Question: For “MNMVAQQMPSPEEIAAQLQMIRDQIAELQGVLAQLELRLRSVQAAKETVEKAAGQDGETLFPGDPELNTILKARLLEPGKAIVHLGLNVYAKLDTAKATEILAKKEDALKRSLETLKQELDKLSRTHDQYLQLLQALTAGQAAQQAGQQQKQGS”, which “soluble on expression in E. coli” value is on record?
Answer: soluble

Question: With “MSTSQEISDPAQATSSAQVKWPRYLEATLGFDNHWHPAAFDHELAEGEFVAVTMLGEKVLLTRAKGEVKAIADGCAHRGVPFSKEPLCFKAGTVSCWYHGWTYDLDDGRLVDVLTSPGSPVIGKIGIKVYPVQVAQGVVFVFIGDEEPHALSEDLPPGFLDEDTHLLGIRRTVQSNWRLGVENGFDTTHIFMHRNSPWVSGNRLAFPYGFVPADRDAMQVYDENWPKGVLDRLSENYMPVFEATLDGETVLSAELTGEEKKVAAQVSVWLPGVLKVDPFPDPTLIQYEFYVPISETQHEYFQVLQRKVEGPEDVKTFEVEFEERWRDDALHGFNDDDVWAREAQQEFYGERDGWSKEQLFPPDMCIVKWRTLASERGRGVRAARVEMSHHHHHH” as the sequence, how does the “soluble on expression in E. coli” value read?
Answer: soluble

Question: For “MAFTESDVYNNEAFFKQYMKRRYRENSPNELIEKPAFFQLIGDVKGKKILDLGCGDAIFGKELLEKDCHSYTGIEGSELMYEKAKKQLENKNGIVHFLNLKDYTYPPATFDLVTSRLALHYIEHLPIIFQNVYETLKTNGTFTFSVQHPVITSSFESLQTSGKRTSWLVDDYFKTGKRVEPWIDQKVIKYHRTTEEYFTLLQQAGFTITNLKEATPNQTYFQSAEEYERRLRIPLFLLFSCRKLEHHHHHH”, which “soluble on expression in E. coli” value is on record?
Answer: soluble

Question: With “MGHHHHHHSHMANPKLLGLELSEAEAIGADSARFEELLLQASKELQQAQTTRPESTQIQPQPGFCIKTNSSEGKVFINICHSPSIPPPADVTEEELLQMLEEDQAGFRIPMSLGEPHAELDAKGQGCTAYDVAVNSDFYRRMQNSDFLRELVITIAREGLEDKYNLQLNPEWRMMKNRPFMGSISQQNIRSEQRPRIQELGDLYTPAPGRAESGPEKPHLNLWLEAPDLLLAEIDLPKLDGALGLSLEIGENRLVMGGPQQLYHLDAYIPLQINSHESKAAFHRKRKQLMVAMPLLLVPS” as the sequence, how does the “soluble on expression in E. coli” value read?
Answer: not soluble

Question: Which “soluble on expression in E. coli” value does the source give for “MSLKPLFGEKDESNISPITKQLTEEEASKVIAEVNGEQILYKDFYFIYSQQAAYYGLTTEDEDSLSDDTKEILNTIKKELLTQLIQQKLAKQKAKEAGYEVTKERLDEASEAIEEMIRNMAEQMKLSSPSEAESRDFLKEARDFINSELKAMRITMDEYIRDTAEYMIVTDFMEDLTKDIVVTDEEIKKYYDEQLKIQQENPEEAAYAEVQLIQPASSRVKHILIALPEEEQQEYQNLKSEGKDEEAEAYLKEKLEAIKPKAEEVLNKAKNGEDFEALIKEYGEDPGMESEQYKDGYTVTKNSGFIKSFEDASLALGVGEISDLVEGPYGYHIIKVYEKTEAKPYTQEEKKSEIESLLKSQKKTNFMNEKMKEWESASTIVRHDDEGHHHHHH” here?
Answer: soluble

Question: With “GPGSMMSLPVEAVKEFLLKLQDDICHAIEAEDEQATFMEDKWTREGGGGGRTRVIANGAVIEKGGVNFSHVYGKGLPGSSTERHPDMAGCNYQAMGVSLVIHPKNPHVPTSHANVRLFVAEKEGKEPVWWFGGGFDLTPYYAVEEDCYYFHHVAQELCRPFGADVYERFKAWCDEYFFIPHRNEARGIGGLFFDDLNEWPFEKCFAFMQAVGKGFIDAYIPIVNRRKNTPYTEQQVEFQEFRRGRYAEFNLVIDRGTKFGLQSGGRTESILMSLPPRARWGYNWHPEPGTPEARLTEYFLTKKQWV” as the sequence, how does the “soluble on expression in E. coli” value read?
Answer: soluble

Question: Which “soluble on expression in E. coli” value does the source give for “MPQEIPPAVKYKIYPEGAEGIDTVWERPGFKKGEIEARVKDVVILRGEPVPNSYKMLVEATFELPKKDKITQLGLVNRHGLVTRVHYASPFKGAILPGDIILQVNGTTVSFDEKQLTEHVDETTGGASLQSNVKTVKRKPTTTPKTEPVRAPHSLYPDFKVVVGKILNSKSETKITVLVARLKNRMSTSKIPNGILATQDHTIDLAILYQFKYLQLGLNVQQVDRKVVVNYTIPDSVSHCSLNIGEAIIAVDDKPINTLADNRQRFREGFEANGWIRLLVEYPNTDPIKNMVRGQLANVMRTAERPQYLLCGDVRKYFVEGIEALKNGKALAPILKEEEGPGEVGKKKSDAKVTKKDPAVGFNNTTEEFFIPAEWNSKLFVWLPPLKTKVTESASSNMPVKK” here?
Answer: not soluble

Question: With “MSLNNVIFSQKLYDTAQMIVDGCMGDADPACQTACPMHTDVKQYVRMAGEGNFQGALDLIRSKLFLPQTLGRICAHPCEASCRRNTEFGQPISVAGIKRFVAEKMDNQDHWDLNIAPLTNKHIAIVGAGPAGAQAAIELRRQGHEVTIYEKLDVYGGMMRVGIPEYRLPRDVIDFEYSYLAMLGIKTQFGVEIGKDISFDTLRSEHDAVILAHGAHVGSIIPLPGHDNDGVFSAVEYLKEISETRQFPRACKRVMVIGGGDVAMDCARSSWRIGASDVYQCSLESLESLPASQIEIDESLEEGVEFNAGWGPVAIEHENGKVTGITIKKVLSIFDEQGNFAPQYSEESKTISVDTVVFATGQIVADITDGALEQTRGGRYVVDKQTLASSLEDVFVAGDACGGNIVIEAMALGRKAAMSVERFLTARPLTEDREGHHHHHH” as the sequence, how does the “soluble on expression in E. coli” value read?
Answer: soluble

Question: With “MKRDGHTHTEFCPHGTHDDVEEMVLKAIELDFDEYSIVEHAPLSSEFMKNTAGDKEAVTTASMAMSDLPYYFKKMNHIKKKYASDLLIHIGFEVDYLIGYEDFTRDFLNEYGPQTDDGVLSLHFLEGQGGFRSIDFSAEDYNEGIVQFYGGFEQAQLAYLEGVKQSIEADLGLFKPRRMGHISLCQKFQQFFGEDTSDFSEEVMEKFRVILALVKKRDYELDFNTAGLFKPLCGETYPPKKIVTLASELQIPFVYGSDSHGVQDIGRGYSTYCQKLEHHHHHH” as the sequence, how does the “soluble on expression in E. coli” value read?
Answer: soluble

Question: With “MSLKKILIIVPDGGMLFESAGIADILMQANRLHPEGAREICYQVKLATTQPHQVIHGQSGLNLLADHRLHEIDPREPLDTIMITGRGQNPQEGMAVVDWLRLAAPHARRIVSICGGAMLLAQTGLLDGRRATTHWKLLETMQAEFPQIRVEGGPLYIQDEHIWTSGGVSSGFDLTLALVEEDYGFSLARDIAQDFVMYLRRPGGQLQFSRYNLQQTATQGPINDLLAWLLENLTADLSVDKLAEKVAMSPRNFTRVFTRETGASPARYVAEARLAAARQRLEQTHETLDRIAEQTGFGSSINLRRLFEKQLNLTPGEYRQRFHCRKMAEGHHHHHH” as the sequence, how does the “soluble on expression in E. coli” value read?
Answer: soluble

Question: With “MVSGYTQSEIDSIAGWLRAGDSASKAAAKLSTMRGRAVSRNAIIGIVHRNAKLAAIGFGRAKSSPASEGSSTYTPEEIKLVADCLKAKRNYVQIAQRLALKSGRIISRFGVKSLIRRTPELNEIGFRGKKGRPSDKKKAAPGQLPGRLFIAATADIDRDPSAFDYLTRPAVRALASQPHFAAMRFVDCLPARCRAPLSYDLEERPGPDMLCCGHLAMPSRSYCAYHEIRLTARKAEFIAEAALEHHHHHH” as the sequence, how does the “soluble on expression in E. coli” value read?
Answer: soluble
